B2: Cdc45 (natural protein, Drosophila melanogaster, UniProt O96989 1-575, looked up)
chain: MFVQDLRNDFYRQLVGKRILIVVNYDIDAICASRILQALFKYDHMLYTVVPIMGVTGLKRAYGEHQGDVKYVVLVNCGGCVDIVELLQPSDDVTFFICDSHRPLDVCNIYSDRQVCILGDASLEENIPAFETIFYDSEGEDEDEDESSDTEQQHDDSGAGESDQEDQAPRSRKLSRLERHEQRILKQRARRQWESERDRIMFEYTQFSYYGRSAALMVFELAWKLSKDNMDLLWWAIVGITEQLLLGKIESGAYTLELEQIQSHVSRLTNKTNDQNTMSASKITFENDLHLVLYRHWPVTESMRYSRYSSCQLKLWTLRGEKRLHELLLEMGLPLVHARQTYGAMDLVLRKEFFSMVERLAEKYDIADIVYGTFTLSYGYRSRYAAADYVYALLAIMESVKKHKTPEDCFLEASDALSRQHKQLLSAGIDQAKLLHAAVFRQVQSSLEARQVHSAGSFFYYVLQEEHAFFSYPYALGLLARFLLRGHVATSRARQASDLPLIASCPLNASEGMCLLVGIVPVREDSPRNFFGKAFEQAAQKSGVALLQDFFEPAVVQLRQSDLTRFLDSLTVLLA
notes: Cdc45, Drosophila melanogaster; also called DmCdc45; source: Hi5 cells, co-infection with baculoviruses; purified as part of the CMG (anti-FLAG agarose, Mono S, Mono Q) and in whole cell lysate

How the values were obtained:
[1] = target: Cdc45/Mcm2-7/GINS (CMG) helicase (Drosophila melanogaster) (UniProt P49735); test: negative-stain EM, reference-free 2D class averages; purified CMG with 3'-tailed DNA and ATPγS; dimeric particles compared with 2D projections of double-hexamer models in six registers
[2] = target: B2; test: negative-stain EM single-particle reconstruction; purified CMG mixed with a 20 bp duplex DNA bearing a 3' dT40 tail and 0.1 mM ATPγS, Superose 6 peak fraction, uranyl formate stain; 18 Å map; crystal structures and homology models docked; conditions: both partners purified
[3] = target: T1, Mcm2 (Drosophila melanogaster, UniProt P49735 1-887); test: as above; conditions: both partners purified
T1 construct: Mcm2, Drosophila melanogaster, subunit of Mcm2-7; source: Hi5 cells, co-infection with baculoviruses; purified as part of the CMG (anti-FLAG agarose, Mono S, Mono Q) and in whole cell lysate
T1 sequence (looked up): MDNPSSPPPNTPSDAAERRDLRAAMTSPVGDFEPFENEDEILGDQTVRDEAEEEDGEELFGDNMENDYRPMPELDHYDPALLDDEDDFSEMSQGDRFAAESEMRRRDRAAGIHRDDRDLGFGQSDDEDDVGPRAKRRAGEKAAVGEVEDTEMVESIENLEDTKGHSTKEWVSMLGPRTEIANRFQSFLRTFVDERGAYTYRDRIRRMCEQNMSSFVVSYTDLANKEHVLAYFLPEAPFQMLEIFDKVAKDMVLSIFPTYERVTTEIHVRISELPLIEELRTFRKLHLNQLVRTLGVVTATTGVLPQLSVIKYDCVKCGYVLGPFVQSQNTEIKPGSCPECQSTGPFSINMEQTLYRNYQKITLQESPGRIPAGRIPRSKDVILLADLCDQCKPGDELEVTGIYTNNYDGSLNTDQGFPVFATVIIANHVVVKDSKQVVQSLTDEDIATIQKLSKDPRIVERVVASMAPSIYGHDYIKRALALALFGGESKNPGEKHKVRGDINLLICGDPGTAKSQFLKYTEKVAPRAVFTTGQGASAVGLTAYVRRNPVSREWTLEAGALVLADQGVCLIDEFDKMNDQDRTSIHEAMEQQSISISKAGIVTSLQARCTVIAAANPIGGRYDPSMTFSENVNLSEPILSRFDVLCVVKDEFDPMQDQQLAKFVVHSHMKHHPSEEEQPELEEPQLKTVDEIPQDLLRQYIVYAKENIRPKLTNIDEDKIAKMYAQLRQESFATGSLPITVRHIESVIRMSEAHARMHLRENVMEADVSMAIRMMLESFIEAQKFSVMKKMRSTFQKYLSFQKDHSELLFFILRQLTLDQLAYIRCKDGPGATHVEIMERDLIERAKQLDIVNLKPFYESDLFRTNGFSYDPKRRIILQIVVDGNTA

[4] = target: T2, Mcm5 (Drosophila melanogaster, UniProt Q9VGW6 1-733); test: as above; conditions: both partners purified
T2 construct: Mcm5, Drosophila melanogaster, subunit of Mcm2-7; source: Hi5 cells, co-infection with baculoviruses; purified as part of the CMG (anti-FLAG agarose, Mono S, Mono Q) and in whole cell lysate
T2 sequence (looked up): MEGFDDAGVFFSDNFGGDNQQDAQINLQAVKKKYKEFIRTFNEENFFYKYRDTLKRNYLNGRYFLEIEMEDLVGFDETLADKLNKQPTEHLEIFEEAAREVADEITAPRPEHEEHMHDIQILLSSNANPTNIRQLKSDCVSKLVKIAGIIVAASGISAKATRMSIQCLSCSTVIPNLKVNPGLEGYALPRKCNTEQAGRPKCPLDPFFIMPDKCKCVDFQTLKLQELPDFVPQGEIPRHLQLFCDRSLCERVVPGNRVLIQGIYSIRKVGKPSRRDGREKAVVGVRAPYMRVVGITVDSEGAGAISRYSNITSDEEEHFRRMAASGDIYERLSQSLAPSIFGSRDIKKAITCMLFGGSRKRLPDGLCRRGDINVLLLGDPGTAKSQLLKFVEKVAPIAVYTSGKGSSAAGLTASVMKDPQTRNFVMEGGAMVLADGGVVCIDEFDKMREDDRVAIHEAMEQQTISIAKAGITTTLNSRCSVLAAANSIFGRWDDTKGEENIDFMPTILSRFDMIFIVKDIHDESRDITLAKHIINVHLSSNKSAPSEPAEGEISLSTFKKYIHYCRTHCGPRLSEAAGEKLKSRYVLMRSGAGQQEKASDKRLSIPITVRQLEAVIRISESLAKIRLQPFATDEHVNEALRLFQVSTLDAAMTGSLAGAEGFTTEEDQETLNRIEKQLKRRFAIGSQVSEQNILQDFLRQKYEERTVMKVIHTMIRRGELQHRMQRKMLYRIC

## Cdc45/Mcm2-7/GINS (CMG) helicase (from UniProt P49735 1-887; Q9XYU1 1-819; Q26454 1-866; Q9VGW6 1-733; Q9V461 1-817; Q9XYU0 1-720; Q9W0I7 1-202; Q9VQY9 1-203; Q9VBI1 1-228; O96989 1-575) (complex)
[1]
  percent of CMG particles in dimers: 5%
  stoichiometry N: 2

B1: Psf1 (natural protein, Drosophila melanogaster, UniProt Q9W0I7 1-202, looked up)
chain: MSRQTKMFGEKAFDLLKELERSSQTIPAFDDDGVRQVLEEIKAIFEENVAQASSYNASGDRSLWPLLNFRHAALQRNKRCLLAYLYERCRRIKALRWEFGPIIPGDIKQALCEPEVTFFNNYSKSLAAYMCSAGYNQGLPIDLTNNLRPPKSLYIEVRCMEDYGKFELDDGEVIHLKKNSQHYLPRAQVESLVRQGILHHIA
notes: Psf1, Drosophila melanogaster, subunit of GINS; the printed B-domain region 185-202 ends at the C-terminus; source: Hi5 cells, co-infection with baculoviruses; purified as part of the CMG (anti-FLAG agarose, Mono S, Mono Q) and in whole cell lysate
[2]
  binding result: binds

## B2
[3]
  binding result: binds
[4]
  binding result: binds
